# Target: HLA-A*01:01 (Homo sapiens, UniProt P04439, A114D/A174V/A182V/D101N/D185E/E176A/E190D/L180R/Q94H/R68K/S129P/T187R/V100A/V91M/W191G)
# Assay: MHC binding assay: UV-ligand exchange, ELISA of stabilized MHC complexes (peptide exchange yield)
# Settings: binding to HLA-A*01:01, UV-ligand exchange
# How it was run: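 Peptide–MHC complexes were formed by UV-induced exchange of a photocleavable ligand for the test peptide. Exchange yield was measured by streptavidin-capture ELISA of 100-fold diluted complexes, detected with HRP anti-β2m at A450. Refolded HLA-A*02:01/MLA-001 monomers at 15-500 ng/ml served as standards.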
row,Substance,Peptide exchange
1,88 (KEVDPAGHSYI; listed as Homo sapiens) [compound 88],++ (>20% = ++)
2,225 (STDPNIVRK; listed as Homo sapiens) [compound 225],+++ (>50 = +++)
3,205 (RMQEGSEVY; listed as Homo sapiens) [compound 205],++ (>20% = ++)
4,94 (KPSAVKDSIY; listed as Homo sapiens) [compound 94],++ (>20% = ++)
5,58 (YLENSASWY; listed as Homo sapiens) [compound 58],++++ (>75% = ++++)
6,127 (VPFNLITEY; listed as Homo sapiens) [compound 127],+ (>10% =+)
7,190 (VSSTVHNLY; listed as Homo sapiens) [compound 190],++++ (>75% = ++++)
8,108 (NSNLKFLEV; listed as Homo sapiens) [compound 108],++ (>20% = ++)
9,116 (RSDIGEFEW; listed as Homo sapiens) [compound 116],++ (>20% = ++)
10,176 (HTDLESPSAVY; listed as Homo sapiens) [compound 176],+++ (>50 = +++)
11,13 (NTHTGTRPY; listed as Homo sapiens) [compound 13],++ (>20% = ++)
12,195 (YTADNEMGYY; listed as Homo sapiens) [compound 195],+++ (>50 = +++)
13,170 (VQIAKGMNY; listed as Homo sapiens) [compound 170],+++ (>50 = +++)
14,255 (WELDSLEY; listed as Homo sapiens) [compound 255],++ (>20% = ++)
15,109 (ISEDKSISF; listed as Homo sapiens) [compound 109],++ (>20% = ++)
16,3 (FGTTPAAEYF; listed as Homo sapiens) [compound 3],++ (>20% = ++)
17,87 (AFDDIATYF; listed as Homo sapiens) [compound 87],++ (>20% = ++)
18,104 (ITDTLIHL; listed as Homo sapiens) [compound 104],++ (>20% = ++)
19,102 (STIRGELFF; listed as Homo sapiens) [compound 102],++ (>20% = ++)
20,232 (RYLNIVHATQLY; listed as Homo sapiens) [compound 232],++ (>20% = ++)
21,204 (NVKEAPTEY; listed as Homo sapiens) [compound 204],++ (>20% = ++)
22,221 (TDVERIKDTY; listed as Homo sapiens) [compound 221],+++ (>50 = +++)
23,35 (SWSAGENDSYS; listed as Homo sapiens) [compound 35],+ (>10% =+)

row,Substance,Peptide exchange
1,140 (SQHIFTVSY; listed as Homo sapiens) [compound 140],++ (>20% = ++)
2,267 (IVADDTVY; listed as Homo sapiens) [compound 267],+++ (>50 = +++)
3,238 (ETDWGLLKGHTY; listed as Homo sapiens) [compound 238],++++ (>75% = ++++)
4,6 (ARDPITFSF; listed as Homo sapiens) [compound 6],++ (>20% = ++)
5,155 (HTMEVTVY; listed as Homo sapiens) [compound 155],+++ (>50 = +++)
6,177 (LVDGKWQEF; listed as Homo sapiens) [compound 177],++ (>20% = ++)
7,274 (YADIHGDLL; listed as Homo sapiens) [compound 274],+++ (>50 = +++)
8,219 (KTELETALYY; listed as Homo sapiens) [compound 219],+++ (>50 = +++)
9,114 (AVAAAAGASLY; listed as Homo sapiens) [compound 114],++ (>20% = ++)
10,110 (IGDKVDAVY; listed as Homo sapiens) [compound 110],++ (>20% = ++)
11,1 (TLDSTRTLY; listed as Homo sapiens) [compound 1],++++ (>75% = ++++)
12,243 (LTSEDTGAY; listed as Homo sapiens) [compound 243],+++ (>50 = +++)
13,183 (LADTDLGMTF; listed as Homo sapiens) [compound 183],++ (>20% = ++)
14,123 (LLKAKDILY; listed as Homo sapiens) [compound 123],++ (>20% = ++)
15,65 (SSDFDPLVY; listed as Homo sapiens) [compound 65],++++ (>75% = ++++)
16,202 (QTDINGGSLK; listed as Homo sapiens) [compound 202],+++ (>50 = +++)
17,47 (WSDGVPLLY; listed as Homo sapiens) [compound 47],++++ (>75% = ++++)
18,213 (VSDSTTEITY; listed as Homo sapiens) [compound 213],+++ (>50 = +++)
19,171 (ITDFGLAKL; listed as Homo sapiens) [compound 171],++ (>20% = ++)
20,80 (ELCPLPGTSAY; listed as Homo sapiens) [compound 80],++ (>20% = ++)
21,222 (GSPDAVVSY; listed as Homo sapiens) [compound 222],+ (>10% =+)
22,103 (ITDTLIHLM; listed as Homo sapiens) [compound 103],+++ (>50 = +++)

# The remaining lines, values ahead:
row,Peptide exchange,Substance
1,++ (>20% = ++),344 (AVNALQSVY; listed as Homo sapiens) [compound 344]
2,++++ (>75% = ++++),292 (VLDFAPPGASAY; listed as Homo sapiens) [compound 292]
3,++ (>20% = ++),278 (AATVKSDIY; listed as Homo sapiens) [compound 278]
4,++++ (>75% = ++++),337 (FTESNQYNIY; listed as Homo sapiens) [compound 337]
5,+ (>10% =+),308 (ELAAGQVVY; listed as Homo sapiens) [compound 308]
6,++++ (>75% = ++++),289 (YTSHEDIGY; listed as Homo sapiens) [compound 289]
7,++ (>20% = ++),392 (TQHFVQENY; listed as Homo sapiens) [compound 392]
8,++ (>20% = ++),328 (LLDEDNNIKL; listed as Homo sapiens) [compound 328]
9,++ (>20% = ++),346 (VAGLEAGVLY; listed as Homo sapiens) [compound 346]
10,++++ (>75% = ++++),351 (VLDPMLDFY; listed as Homo sapiens) [compound 351]
11,++ (>20% = ++),338 (YSPDSFNVSW; listed as Homo sapiens) [compound 338]
12,+++ (>50 = +++),361 (FTAEEGQLY; listed as Homo sapiens) [compound 361]
13,++++ (>75% = ++++),367 (LTDTGYLQLY; listed as Homo sapiens) [compound 367]
14,+++ (>50 = +++),340 (SVDSNLVAY; listed as Homo sapiens) [compound 340]
15,+++ (>50 = +++),300 (VSINPNSGDIY; listed as Homo sapiens) [compound 300]
16,++++ (>75% = ++++),390 (FSEPFHLIVSY; listed as Homo sapiens) [compound 390]
17,++ (>20% = ++),284 (TCSHTFVYY; listed as Homo sapiens) [compound 284]
18,+ (>10% =+),349 (HLLSVSLYY; listed as Homo sapiens) [compound 349]

row,Peptide exchange,Substance
1,++ (>20% = ++),306 (KSFETTVRY; listed as Homo sapiens) [compound 306]
2,+++ (>50 = +++),315 (VLKIELETY; listed as Homo sapiens) [compound 315]
3,+ (>10% =+),366 (ITVDVRDEF; listed as Homo sapiens) [compound 366]
4,++ (>20% = ++),382 (YEPATMEQY; listed as Homo sapiens) [compound 382]
5,++++ (>75% = ++++),333 (LSDPQAELQFY; listed as Homo sapiens) [compound 333]
6,+++ (>50 = +++),369 (AVMEAAFVY; listed as Homo sapiens) [compound 369]
7,++ (>20% = ++),290 (GQFTGTAGACRY; listed as Homo sapiens) [compound 290]
8,++++ (>75% = ++++),342 (QTYMDGLLHY; listed as Homo sapiens) [compound 342]
9,++++ (>75% = ++++),319 (FTDPHIITF; listed as Homo sapiens) [compound 319]
10,+ (>10% =+),360 (RFDDINQEF; listed as Homo sapiens) [compound 360]
11,++ (>20% = ++),365 (FVDTKVPEH; listed as Homo sapiens) [compound 365]
12,+++ (>50 = +++),376 (EDDEDEDLY; listed as Homo sapiens) [compound 376]
13,+++ (>50 = +++),297 (RLDEAMISY; listed as Homo sapiens) [compound 297]
14,++ (>20% = ++),396 (LPDPNVQKY; listed as Homo sapiens) [compound 396]
15,++ (>20% = ++),312 (VTDGINPLI; listed as Homo sapiens) [compound 312]
16,++++ (>75% = ++++),305 (YADLLIYTY; listed as Homo sapiens) [compound 305]
17,+++ (>50 = +++),275 (ESDEMENLLTY; listed as Homo sapiens) [compound 275]

# Source: US12195506B2, “Immunotherapy with A*01 restricted peptides and combination of peptides against cancers and related methods” (Immatics Biotechnologies GmbH, priority 2018, dated 2025)
